2 proteins from US20070093443 can be followed below.

One data set deals with T1, Complement C2 (human).
T1 chain: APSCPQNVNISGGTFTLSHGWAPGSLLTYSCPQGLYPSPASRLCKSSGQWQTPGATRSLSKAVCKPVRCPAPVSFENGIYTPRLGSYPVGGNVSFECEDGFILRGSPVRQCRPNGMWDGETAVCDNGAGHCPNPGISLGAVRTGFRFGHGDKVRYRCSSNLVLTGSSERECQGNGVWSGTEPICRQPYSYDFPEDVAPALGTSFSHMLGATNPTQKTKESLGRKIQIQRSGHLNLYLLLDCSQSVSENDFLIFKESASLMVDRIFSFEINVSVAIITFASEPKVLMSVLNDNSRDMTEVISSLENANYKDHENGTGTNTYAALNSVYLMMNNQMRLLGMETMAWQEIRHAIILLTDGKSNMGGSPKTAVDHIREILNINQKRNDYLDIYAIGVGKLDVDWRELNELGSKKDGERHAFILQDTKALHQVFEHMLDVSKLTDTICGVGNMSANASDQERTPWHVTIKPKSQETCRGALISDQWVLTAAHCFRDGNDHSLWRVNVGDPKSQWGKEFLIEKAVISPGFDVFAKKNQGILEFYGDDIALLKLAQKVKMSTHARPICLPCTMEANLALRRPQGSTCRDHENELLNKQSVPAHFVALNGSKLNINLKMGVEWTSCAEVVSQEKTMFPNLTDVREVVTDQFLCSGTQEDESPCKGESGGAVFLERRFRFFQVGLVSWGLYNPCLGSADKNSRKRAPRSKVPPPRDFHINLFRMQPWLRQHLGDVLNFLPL

The target in the next data set is T2, Complement C4 (human).
T2 chain 1: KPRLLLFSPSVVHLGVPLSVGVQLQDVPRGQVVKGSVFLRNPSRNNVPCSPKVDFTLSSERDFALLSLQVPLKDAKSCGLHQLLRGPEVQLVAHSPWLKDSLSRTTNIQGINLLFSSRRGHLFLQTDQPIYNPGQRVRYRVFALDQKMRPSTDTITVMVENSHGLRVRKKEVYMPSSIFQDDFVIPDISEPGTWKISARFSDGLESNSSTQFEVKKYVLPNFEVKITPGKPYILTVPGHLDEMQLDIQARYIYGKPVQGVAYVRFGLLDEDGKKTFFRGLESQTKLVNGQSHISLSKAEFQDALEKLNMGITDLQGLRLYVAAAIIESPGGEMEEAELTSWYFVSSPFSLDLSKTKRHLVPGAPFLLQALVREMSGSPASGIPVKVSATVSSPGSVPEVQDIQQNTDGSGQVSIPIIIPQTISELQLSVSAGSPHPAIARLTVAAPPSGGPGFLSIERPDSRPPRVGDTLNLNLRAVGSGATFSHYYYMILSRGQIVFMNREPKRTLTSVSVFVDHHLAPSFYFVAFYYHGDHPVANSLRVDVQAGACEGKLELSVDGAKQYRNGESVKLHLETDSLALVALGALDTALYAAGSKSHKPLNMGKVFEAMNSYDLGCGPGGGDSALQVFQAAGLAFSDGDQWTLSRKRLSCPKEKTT
T2 chain 2: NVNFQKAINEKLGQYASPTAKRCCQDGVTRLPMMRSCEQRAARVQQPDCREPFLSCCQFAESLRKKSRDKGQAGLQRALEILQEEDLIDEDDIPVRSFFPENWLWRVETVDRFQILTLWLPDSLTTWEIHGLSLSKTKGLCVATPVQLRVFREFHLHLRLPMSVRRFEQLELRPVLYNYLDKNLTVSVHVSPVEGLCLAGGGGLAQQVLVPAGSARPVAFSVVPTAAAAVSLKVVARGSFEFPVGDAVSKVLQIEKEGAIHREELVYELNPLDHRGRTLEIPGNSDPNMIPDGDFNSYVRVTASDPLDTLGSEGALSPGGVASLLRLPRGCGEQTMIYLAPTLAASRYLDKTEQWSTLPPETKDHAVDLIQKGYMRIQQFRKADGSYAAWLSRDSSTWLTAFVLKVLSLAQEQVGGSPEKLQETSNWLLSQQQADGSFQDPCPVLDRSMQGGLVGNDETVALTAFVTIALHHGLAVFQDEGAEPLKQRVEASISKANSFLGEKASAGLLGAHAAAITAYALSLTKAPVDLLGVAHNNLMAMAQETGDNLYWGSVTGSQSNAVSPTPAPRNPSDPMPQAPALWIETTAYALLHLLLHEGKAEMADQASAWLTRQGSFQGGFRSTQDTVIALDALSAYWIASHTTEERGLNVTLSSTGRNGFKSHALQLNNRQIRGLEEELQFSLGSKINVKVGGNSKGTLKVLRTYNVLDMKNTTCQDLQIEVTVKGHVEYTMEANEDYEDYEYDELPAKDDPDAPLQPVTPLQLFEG
T2 chain 3: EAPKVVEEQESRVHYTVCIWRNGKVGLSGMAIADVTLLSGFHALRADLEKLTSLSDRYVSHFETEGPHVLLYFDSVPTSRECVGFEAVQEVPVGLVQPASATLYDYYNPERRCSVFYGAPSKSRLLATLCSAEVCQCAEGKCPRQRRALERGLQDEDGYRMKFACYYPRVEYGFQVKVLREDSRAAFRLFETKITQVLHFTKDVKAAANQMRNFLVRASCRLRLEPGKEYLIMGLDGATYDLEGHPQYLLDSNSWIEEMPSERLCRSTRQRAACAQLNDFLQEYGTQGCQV

The target of data set [1] is Complement component C7 (human).
Data set [2] deals with Complement component C9 (human).
Sequence of Complement component C9 (human) (chain, as listed by the source): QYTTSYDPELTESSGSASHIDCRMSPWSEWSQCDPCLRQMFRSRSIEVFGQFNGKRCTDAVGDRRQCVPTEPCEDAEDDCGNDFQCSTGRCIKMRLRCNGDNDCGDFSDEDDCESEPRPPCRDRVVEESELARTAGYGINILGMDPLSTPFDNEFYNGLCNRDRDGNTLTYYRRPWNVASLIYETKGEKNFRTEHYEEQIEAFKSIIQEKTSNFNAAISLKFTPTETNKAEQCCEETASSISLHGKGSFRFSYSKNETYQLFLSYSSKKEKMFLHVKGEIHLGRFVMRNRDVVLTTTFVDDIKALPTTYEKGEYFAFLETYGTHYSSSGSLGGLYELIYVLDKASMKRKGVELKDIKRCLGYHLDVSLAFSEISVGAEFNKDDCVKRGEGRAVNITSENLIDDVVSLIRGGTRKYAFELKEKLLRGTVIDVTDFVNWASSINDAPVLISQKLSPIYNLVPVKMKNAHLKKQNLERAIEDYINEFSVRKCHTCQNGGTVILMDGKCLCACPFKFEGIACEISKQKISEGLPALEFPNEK

Sequence of Complement C5 (human) (chain, as listed by the source, chain 1 of 2): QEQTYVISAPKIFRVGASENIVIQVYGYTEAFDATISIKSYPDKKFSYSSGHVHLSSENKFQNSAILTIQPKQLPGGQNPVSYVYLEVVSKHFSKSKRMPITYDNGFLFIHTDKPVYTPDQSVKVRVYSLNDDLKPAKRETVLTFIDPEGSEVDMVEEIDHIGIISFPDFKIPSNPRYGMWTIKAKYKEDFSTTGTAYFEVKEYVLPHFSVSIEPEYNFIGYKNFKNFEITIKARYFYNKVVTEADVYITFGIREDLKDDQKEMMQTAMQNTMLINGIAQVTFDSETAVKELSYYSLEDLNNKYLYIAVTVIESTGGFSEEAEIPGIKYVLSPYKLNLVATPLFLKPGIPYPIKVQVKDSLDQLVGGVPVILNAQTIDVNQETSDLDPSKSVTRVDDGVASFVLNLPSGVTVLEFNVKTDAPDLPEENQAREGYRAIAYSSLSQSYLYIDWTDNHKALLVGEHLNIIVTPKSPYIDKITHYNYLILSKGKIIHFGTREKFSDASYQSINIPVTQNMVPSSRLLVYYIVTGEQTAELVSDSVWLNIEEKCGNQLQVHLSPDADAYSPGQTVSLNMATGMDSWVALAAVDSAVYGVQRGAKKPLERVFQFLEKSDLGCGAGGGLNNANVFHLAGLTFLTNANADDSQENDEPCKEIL
Sequence of Complement C5 (human) (chain, as listed by the source, chain 2 of 2): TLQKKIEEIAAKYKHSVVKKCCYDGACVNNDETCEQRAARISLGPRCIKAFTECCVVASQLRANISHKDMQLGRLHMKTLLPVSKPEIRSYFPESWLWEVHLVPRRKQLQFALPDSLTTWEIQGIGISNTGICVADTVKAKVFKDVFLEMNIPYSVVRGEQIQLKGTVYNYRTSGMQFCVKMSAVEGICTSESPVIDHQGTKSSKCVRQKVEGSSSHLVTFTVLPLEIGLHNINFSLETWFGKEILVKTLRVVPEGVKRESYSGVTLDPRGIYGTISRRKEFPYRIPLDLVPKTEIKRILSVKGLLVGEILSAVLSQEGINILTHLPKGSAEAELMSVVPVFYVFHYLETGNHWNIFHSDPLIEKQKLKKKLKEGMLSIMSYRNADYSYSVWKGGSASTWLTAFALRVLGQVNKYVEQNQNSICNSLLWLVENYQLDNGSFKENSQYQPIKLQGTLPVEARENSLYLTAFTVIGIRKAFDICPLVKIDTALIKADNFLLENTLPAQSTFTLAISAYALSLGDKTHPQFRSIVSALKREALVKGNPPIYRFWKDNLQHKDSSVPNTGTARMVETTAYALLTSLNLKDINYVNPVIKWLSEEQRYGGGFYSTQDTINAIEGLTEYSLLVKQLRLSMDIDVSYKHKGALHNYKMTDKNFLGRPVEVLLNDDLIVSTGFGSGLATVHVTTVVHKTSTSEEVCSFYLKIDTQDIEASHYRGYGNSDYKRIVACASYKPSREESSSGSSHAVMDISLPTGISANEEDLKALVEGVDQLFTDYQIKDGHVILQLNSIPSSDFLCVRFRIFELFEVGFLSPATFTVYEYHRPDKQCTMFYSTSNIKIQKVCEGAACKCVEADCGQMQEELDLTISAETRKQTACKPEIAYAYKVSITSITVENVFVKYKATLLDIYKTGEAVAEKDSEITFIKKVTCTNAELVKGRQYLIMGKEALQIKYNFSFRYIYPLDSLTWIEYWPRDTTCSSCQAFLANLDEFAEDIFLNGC
Sequence of Complement component C7 (human) (chain, as listed by the source): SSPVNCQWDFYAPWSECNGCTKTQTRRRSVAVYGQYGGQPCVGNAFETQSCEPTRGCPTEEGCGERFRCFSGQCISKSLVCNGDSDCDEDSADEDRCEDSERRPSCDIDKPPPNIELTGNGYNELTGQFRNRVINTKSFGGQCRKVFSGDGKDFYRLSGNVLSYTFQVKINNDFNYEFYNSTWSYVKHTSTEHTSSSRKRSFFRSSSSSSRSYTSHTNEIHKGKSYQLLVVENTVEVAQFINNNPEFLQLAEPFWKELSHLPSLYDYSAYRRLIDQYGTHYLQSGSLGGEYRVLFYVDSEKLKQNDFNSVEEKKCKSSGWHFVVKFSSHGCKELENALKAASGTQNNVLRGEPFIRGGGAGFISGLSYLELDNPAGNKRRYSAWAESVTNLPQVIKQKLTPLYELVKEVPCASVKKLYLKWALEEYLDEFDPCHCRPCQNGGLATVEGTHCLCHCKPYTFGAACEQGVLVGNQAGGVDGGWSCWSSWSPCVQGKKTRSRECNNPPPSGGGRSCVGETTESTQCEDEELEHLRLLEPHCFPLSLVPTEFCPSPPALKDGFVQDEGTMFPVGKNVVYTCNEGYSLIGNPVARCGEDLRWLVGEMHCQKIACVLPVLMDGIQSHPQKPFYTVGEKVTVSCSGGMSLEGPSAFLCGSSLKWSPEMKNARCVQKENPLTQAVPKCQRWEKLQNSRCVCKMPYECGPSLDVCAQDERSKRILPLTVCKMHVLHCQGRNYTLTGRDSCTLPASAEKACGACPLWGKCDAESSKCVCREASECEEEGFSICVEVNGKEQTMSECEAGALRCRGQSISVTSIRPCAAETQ

B1: modified MT-SP1 CB252 (Y146E/K224N) protease domain (protein)
chain: VVGGTDADEGEWPWQVSLHALGQGHICGASLISPNWLVSAAHCYIDDRGFRYSDPTQWTAFLGLHDQSQRSAPGVQERRLKRIISHPFFNDFTFDYDIALLELEKPAEYSSMVRPICLPDASHVFPAGKAIWVTGWGHTQEGGTGALILQKGEIRVINQTTCENLLPQQITPRMMCVGFLSGGVDSCQGDSGGPLSSVEADGRIFQAGVVSWGDGCAQRNNPGVYTRLPLFRDWIKENTGV
With B1, the “hemolysis (OD415) by protease-preincubated purified complement protein added back to the corresponding depleted sera” value with Complement C1q (human) is “showed no decreased hemolysis as compared to normal sera or the no protease control”; with Complement C2 (human), “resulted in an inhibition of hemolysis as assessed by a reduced OD415 absorbance to levels comparable to the depleted sera control”; in the data set with Complement C4 (human), “showed no decreased hemolysis as compared to normal sera or the no protease control”; with Complement C5 (human), “showed no decreased hemolysis as compared to normal sera or the no protease control”; in data set [1], “showed no decreased hemolysis as compared to normal sera or the no protease control”; in data set [2] it was “showed no decreased hemolysis as compared to normal sera or the no protease control”. Moreover, the “cleavage in 90% human plasma by Western blot” value in the data set with Complement C2 (human) is “cleaved C2 in human plasma in a dose-dependent manner”. Also, in the data set with Complement C2 (human), the “cleavage of purified C2 by 100 nM protease, SDS-PAGE and Coomassie” value was “C2 was almost completely degraded to yield cleavage products of about 70 kD and 23 kD corresponding to C2a and C2b, respectively”. In the data set with Complement C2 (human), the “fraction C5b-9 generated, Total Complement System Screen (classical and MBL pathways), 1 uM protease in human plasma” value was “the fraction C5b-9 generated upon complement activation induced by the classical and MBL pathways was almost completely inhibited”.

B2: modified MT-SP1 CB377 (Y146E/Q175D/K224N) protease domain (protein)
chain: VVGGTDADEGEWPWQVSLHALGQGHICGASLISPNWLVSAAHCYIDDRGFRYSDPTQWTAFLGLHDQSQRSAPGVQERRLKRIISHPFFNDFTFDYDIALLELEKPAEYSSMVRPICLPDASHVFPAGKAIWVTGWGHTQEGGTGALILQKGEIRVINQTTCENLLPQDITPRMMCVGFLSGGVDSCQGDSGGPLSSVEADGRIFQAGVVSWGDGCAQRNNPGVYTRLPLFRDWIKENTGV
Turning to B2, the “hemolysis (OD415) by protease-preincubated purified complement protein added back to the corresponding depleted sera” value with Complement C1q (human) is “showed no decreased hemolysis as compared to normal sera or the no protease control”; with Complement C2 (human), “resulted in an inhibition of hemolysis as assessed by a reduced OD415 absorbance to levels comparable to the depleted sera control”; with Complement C4 (human) it was “showed no decreased hemolysis as compared to normal sera or the no protease control”; with Complement C5 (human), “showed no decreased hemolysis as compared to normal sera or the no protease control”; in data set [1], “showed no decreased hemolysis as compared to normal sera or the no protease control”; in data set [2] it was “showed no decreased hemolysis as compared to normal sera or the no protease control”. In addition, the “cleavage in 90% human plasma by Western blot” value with Complement C2 (human) is listed as “cleaved C2 in human plasma in a dose-dependent manner”. For the same protein, the “cleavage of purified C2 by 100 nM protease, SDS-PAGE and Coomassie” value in the data set with Complement C2 (human) is “C2 was almost completely degraded to yield cleavage products of about 70 kD and 23 kD corresponding to C2a and C2b, respectively”. In addition, the “fraction C5b-9 generated, Total Complement System Screen (classical and MBL pathways), 1 uM protease in human plasma” value with Complement C2 (human) is “the fraction C5b-9 generated upon complement activation induced by the classical and MBL pathways was almost completely inhibited”.
